According to paper PMC10318062 (Nature Communications, 2023):

B1: BD-604 (antibody, V domains shown)
VH: EVQLVESGGGLIQPGGSLRLSCAASGIIVSSNYMTWVRQAPGKGLEWVSVIYSGGSTFYADSVKGRFTISRDNSKNTLYLQMSSLRAEDTAVYYCARDLGPYGMDVWGQGTTVTVSS
VL: DIQLTQSPSFLSASVGDRVTITCRASQGISSDLAWYQQKPGKAPNLLIYAASTLQSGVPSRFSGSGSGTEFTLTISSLQPEDFATYYCQQLNSDLYTFGQGTKLEIK
B2: CC12.1 (antibody, V domains shown)
VH: EVQLVESGGGLIQPGGSLRLSCAASGLTVSSNYMSWVRQAPGKGLEWVSVIYSGGSTFYADSVKGRFTISRDNSKNTLYLQMNSLRAEDTAVYYCARDLDVYGLDVWGQGTTVTVSS
VL: DIVMTQSPSFLSASVGDRVTITCRASQGISSYLAWYQQKPGKAPKLLIYAASTLQSGVPSRFSGSGSGTEFTLTISSLQPEDFATYYCQQLNSYPPKFTFGPGTKVEIK
B3: COVA2-43 (antibody, V domains shown)
VH: QVQLVQPGAEVKKPGASVKVSCKASGYTFTSYGISWVRQAPGQGLEWMGWISAYNGDTNYAQKLQGRVTMTTDTSTSTAYMELRSLKSDDTAVYYCARFDYGYPYSSWSVLSIDYWGQGTLVTVSS
VL: DIVMTQSPSSLSASVGDRVTITCRASQGIRNDLGWYQQKPGKAPKRLIYAASSLQSGVPSRFSGSGSGTEFTLTISSLQPEDFATYYCLQHNSYPLTFGGGTKLEIK
B4: C105 (antibody, V domains shown)
VH: QVQLVESGGGLIQPGGSLRLSCAASGFTVSSNYMSWVRQAPGKGLEWVSVIYSGGSTYYADSVKGRFTISRDNSKNTLYLQMNSLRAEDTAVYYCARGEGWELPYDYWGQGTLVTVSS
VL: QSALTQPPSGSGSPGQSVTISCTGTSSDVGGYKYVSWYQQHPGKAPKLMIYEVSKRPSGVPDRFSGSKSGNTASLTVSGLQAEDEADYYCSSYEGSNNFVVFGGGTKLTVL
B5: COVA1-18 (antibody, V domains shown)
VH: EVQLVESGGGLVQPGGSLRLSCAASGFTVSSNYMSWVRQAPGKGLEWVSVIYSGGSTYYADSVKGRFTISRDNSKNTLYLQMNSLRAEDTAVYYCARVEWAAAGTFYWGQGTLVTVSS
VL: QSALTQEPSLTVSPGGTVTLTCGSSTGAVTSGHYPYWFQQKPGQAPRTLIYDTSNKRSWTPARFSGSLLGGKAALTLSGAQPEDEAEYYCLLSYSGVWVFGGGTKLTVL
B6: C110 (antibody, V domains shown)
VH: QVQLQQSGAEVKKPGESLKISCKGSGYSFTSYWIGWVRQMPGKGLEWMGIIYPGDSDTRYSPSFQGQVTISADKSISTAYMQWSSLKASDTAMYYCARSFRDDPRIAVAGPADAFDIWGQGTMVTVSS
VL: DIQMTQSPSTLSASVGDRVTITCRASQSISYWLAWYQQKPGKAPKLLIYQASSLESGVPSRFSGSESGTEFTLTISSLQPDDFATYYCQQYNSYPYTFGQGTKLEIK
B7: C144 (antibody, V domains shown)
VH: EVQLVESGGGLIQPGGSLRLSCAASGFTVSNNYMSWVRQAPGKGLEWVSVIYSGGSTYYADSVKGRFTISRDKSKNTLYLQMNRLRAEDTAVYYCAREGEVEGYNDFWSGYSRDRYYFDYWGQGTLVTVSS
VL: QSALTQPASVSGSPGQSITISCTGTSSDVGGYNYVSWYQQHPGKAPKLMIYDVSNRPSGVSNRFSGSKSGNTASLTISGLQAEDEADYYCSSYTSSSTRVFGTGTKVTVL
B8: C119 (antibody, V domains shown)
VH: QVQLVQSGAEVKKPGASVKVSCKASGYTFTSYYMHWVRQAPGQGLEWMGIINPSGGSTSYAQKLQGRVTMTRDTSTSTVYMELSSLRSEDTAVYYCARANHETTMDTYYYYYYMDVWGKGTTVTVSS
VL: QSALTQPASVSGSPGQSITISCTGTSSDVGGYKYVSWYQRHPGKAPKLMIYDVSNRPSGVSNRFSGSKSGNTASLTISGLQAEDEADYYCSSYTSSSTSVVFGGGTQLTVL
B9: BD-236 (antibody, V domains shown)
VH: EVQLVESGGGLIQPGGSLRLSCAASGITVSSNYMSWVRQAPGKGLEWVSVIYSGGSTDYADSVKGRFTISRDKSKNTLYLQMNSLRAEDTAVYYCARDLGEAGGMDVWGQGTTVTVSS
VL: AIQLTQSPSSLSASVGDRVTITCRASQGISSYLAWYQQKPGKAPKLLIYAASTLQSGVPSRFSGSGSGTDFTLTISSLQPEDFATYYCQQLNSYPPAFGGGTKVEIK
B10: BD-368-2 (antibody, V domains shown)
VH: EVQLLESGGGVVQPGGSLRLSCAASGFAFTTYAMNWVRQAPGRGLEWVSAISDGGGSAYYADSVKGRFTISRDNSKNTLYLQMNSLRAEDTAVYYCAKTRGRGLYDYVWGSKDYWGQGTLVTVSS
VL: AIQLTQSPSSLSASVGDRVTITCRASQGISSYLAWYQQKPGKAPKLLIYAASTLQSGVPSRFSGSGSGTDFTLTISSLQPEDFATYYCQQLNSYPPAFGGGTKVEIK
B11: COVA3-08 (antibody, V domains shown)
VH: EVQLVESGPGLVKPSETLSLTCTVSGGSISSYYWSWIRQPPGKGLEWIGYIYYSGSTNYNPSLKSRVTISVDTSKNQFSLRLSSVTAADTAVYYCARGPAATYYYYMDVWGKGTMVTVSS
VL: not shown
B12: C121 (antibody, V domains shown)
VH: not shown
VL: QSALTQPASVSGSPGQSITISCTGTSSDVGSYNLVSWYQQHPGKAPKLMIYEGSKRPSGVSNRFSGSKSGNTASLTISGLQAEDEADYYCCSYAGSSTLVFGGGTKLTVL
B13: COVA2-39 (antibody, V domains shown)
VH: QVQLVETGGGLIQPGGSLRLSCAASGFTVSSNYMSWVRQAPGKGLEWVSVIYTGGTTYYADSVKGRFTISRDNSKNTLYLQMNSLRAEDTAVYYCARAHVDTAMVESGAFDIWGQGTRVTVSS
VL: QSALTQPASVSGSPGQSITISCTGTSSDVGSYNLVSWYQQHPGKAPKLMIYEVTKRPSGVSNRFSGSKSGNTASLTISGLQAEDEADYYCCSYAGSSTWVFGGGTKLTVL
B14: COVA2-41 (antibody, V domains shown)
VH: EVQLVESGGGLVKPGGSLRLSCSASGFTFSNYNMDWVRQAPGKGLEWVSSISSSSSYIYLADSVKGRFTISRDNAKNSLYLQMNSLRAEDTAVYYCARVQKDIVVVPVALADYYYYGMDVWGQGTTVTVSS
VL: DIVMTQSPATLSVSPGERATLSCRASQSVSSNLAWYQQKPGQAPRLLIYGASTRATGIPARFSGSGSGTEFTLTISSLQPEDFAVYYCQQCYNWPPWTFGQGTRVEFK
B15: C002 (antibody, V domains shown)
VH: EVQLVESGGGVVQPGRSLRLSCAASGFTFSIYGMHWVRQAPGKGLEWVAVISYDGSNKYYADSVKGRFTISRDNSKNTLYLQMNSLRAEDTAVYYCAKEGRPSDIVVVVAFDYWGQGTLVTVSS
VL: not shown
B16: COVA1-07 (antibody, V domains shown)
VH: QVQLVESGAEVKKPGSSVKVSCKASGGTLSSYAITWVRQAPGQGLEWVGGIIPIFGTANYAQKFQGRVTITADESTSTAYMELSSLRSEDTAVYYCARVGAYDSSGYSNDYWGQGTLVTVSS
VL: DIQLTQSPATLSLSPGERATLSCRASQSVSSYLAWYQQKPGQAPRLLIYDASNRATGIPARFSGSGSGTDFTLTISSLEPEDFAVYYCQQRSNWPPRVTFGGGTKVEIK
B17: COVA2-14 (antibody, V domains shown)
VH: QVQLVQSGAEVKKPGSSVKVSCKASGGTFSSYAIIWVRQAPGQGLEWMGGIIPIFGTANYAQKFQGRVTITTDESTSTAYMELSSLRSEDTAVYYCARVRYYDSSGYYEDYWGQGTLVTVSS
VL: EIVLTQSPATLSLSPGERATLSCRASQSVSSYLAWYQQEPGQAPRLLIYDASNRATGIPARFSGSGSGTDFTLTISSLEPEDFAVYYCQQRSNWPPMYTFGQGTKVEIK
B18: COVA2-18 (antibody, V domains shown)
VH: EVQLVQSGAEVKKPGSSVKVSCKASGGTFSSYAISWVRQAPGQGLEWMGGIIPIFGTTNYAQKFQGRVTITTDESTSTAYMELSSLRSEDTAVYYCARVYSYDSSGYYLEYWGQGTRVTVSS
VL: EIVLTQSPATLSLSPGERATLSCRASQSVSSYLAWYQQKPGQAPRLLIYDASNRATGIPARFSGSGSGTDFTLTISSLEPEDFAVYYCQQRSNWPPSITFGQGTRLEIK
B19: BD-629 (antibody, V domains shown)
VH: EVQLVESGGGLIQPGGSLRLSCAASEFIVSRNYMSWVRQAPGKGLEWVSVIYSGGSTYYADSVKGRFTISRDNSKNTLNLQMNSLRAEDTAVYYCARDYGDYYFDYWGQGTLVTVSS
VL: EIVLTQSPGTLSLSPGERATLSCRASQGVSSFLAWYQQKPGQAPRLLIHGASSRATGIPDRFSGSGSGTDFTLTITRLEPEDFAVYYCQQYGSSPRTFGQGTKVEIK
B20: CC12.3 (antibody, V domains shown)
VH: QVQLVESGGGLIQPGGSLRLSCAASGFTVSSNYMSWVRQAPGKGLEWVSVIYSGGSTFYADSVKGRFTISRDNSKSTLYLQMNSLRVEDTAVYYCARDFGDFYFDYWGQGTLVTVSS
VL: not shown
B21: COVA2-34 (antibody, V domains shown)
VH: QVQLVESGGGVVQPGRSLRLSCAASGFTFSSYAMHWVRQAPGKGLEWVAVISYDGSNKYYADSVKGRFTISRDNSKNTLYLQMNSLRAEDTAVYYCARSASGSYYGAFDYWGQGTLVTVSS
VL: QTVVTQPASVSGSPGQSITISCTGTSSDVGGYNYVSWYQQHPGKAPKLMIYDVSNRPSGVSNRFSGSKSGNTASLTISGLQAEDEADYYCSSYTSSSTLGLYVFGTGTKVTVL
B22: COVA2-28 (antibody, V domains shown)
VH: EVQLVESGGGVVQPGRSLRLSCAASGFTFSSYGMHWVRQAPGKGLEWVAVIWYDGSNKYYADSVKGRFTISRDNSKNTLYLQMDSLRAEDTAMYYCAKDKAPPCSSGWYYFDYWGQGTLVTVSS
VL: not shown
B23: COVA2-10 (antibody, V domains shown)
VH: EVQLLESGGGLVQPGGSLKLSCAASGFTFSSYAMSWVRQAPGKGLEWVSAISGSGSNTYYADSVKGRFTISRDNSKNTLYLQMNSLRAEDTAVYYCAKGLRGQQLVIPTEYFQHWGQGTLVTVSS
VL: not shown

Target: SARS-CoV-2 hexaproline stabilized pre-fusion spike glycoprotein (S6P) (SARS-CoV-2, ancestral (Wuhan-Hu-1 …, UniProt P0DTC2, stabilised))

Binder | binding result
B1 | binds
B2 | binds
B3 | binds
B4 | binds
B5 | binds
B6 | binds
B7 | binds
B8 | binds
B9 | binds
B10 | binds
B11 | binds
B12 | binds
B13 | binds
B14 | binds
B15 | binds
B16 | binds
B17 | binds
B18 | binds
B19 | binds
B20 | binds
B21 | binds
B22 | binds
B23 | binds
